This series can be described thus: yeast display, Sf9 membrane polyspecificity reagent, FACS + sequencing; frameworks hold sequencing errors. In outline: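 Nanobodies from a synthetic yeast display library (Saccharomyces cerevisiae BJ5465), induced 36–48 hours with galactose, were stained 1 hour at 4 °C with 10% biotinylated, detergent-solubilized Sf9 membrane reagent, enriched on streptavidin microbeads, then FACS-sorted. Anti-HA (expression) and streptavidin (reagent binding) fluorescence set low and high (top ~1%) gates. Polyreactivity labels come from the gate of origin. Genes were colony-PCR amplified, MiSeq 2 × 250 sequenced and filtered by CDR length.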
Consider “QVQLVESGGGLVQAGGSLRLSCAASGSNFVTYAMGWSRQAPGKERELVAAISSSGTSTYYADSVKGRFTISRDNAKNTVYLQMNSLKPEDTAVYYCAAYLRGYDYGYWGQGTQVTVSS”, for which the “polyreactivity (PSR sort gate)” value is “high polyreactivity”. The value for “QVQLVESGGGLVQAGGSLRLSCAASGSNFVTYAMGWYRQAPGKERELVAAISYSGGSTYADSVKGRFTISRDNAKNTVYLQMNILKPEDTAVYYCNTDTSVDVRFDYWGQGTQVTVSS” was “low polyreactivity”. The value for “QVQLVESGGGLVQAGGSLRLSCAASGSNFVVYAMGWYRQAPGKERELVAAITGSGGRTYYADSVKGRFTISRDNAKNTVYLQMNSLKPEDTAVYYCATDSRGGIFDYWGQGTQVTVSS” was “low polyreactivity”; that for “QVQLVESGGGLVQAGGSLRLSCAASGSNFYHYAMGWYRQAPGKERELVAAITRSGGSTYYADSVKGRFTISRDNAKNTVYLQLNSLKPEDTAVYYCAKDPDSYNFLTSNWYDYWGQGTQVTVSS” was “low polyreactivity”. Next, “QVQLVESGGGLVQAGGSLRLSCAASGSNFYSYVMGWYRQAPGKERELVAAISRNGQSTYYADSVKGRFTISRDNAKNTVYLQMNSLKPEDTAVYYCAARSRDKYDYWGQGTQVTVSS”: “high polyreactivity”; “QVQLVESGGGLVQAGGSLRLSCAASGSNISDNEMGWYRPAPGKESELVAAINWGGTNTYYADSVKGRYTISRDNAKNTVYLQINRLKPEDTAVYYCNADIPRRPIRHYLYDYWGQGTQVTVSS”: “low polyreactivity”; “QVQLVESGGGLVQAGGSLRLSCAASGSNLGNNDMGWYRQAPGKERQLVAAISRSDVSTFYADSVKGRFTISRDNAKNTVYLQMNSLKPEDTAVSSCAARTGRGDRTRRYYYWGQGTQVTVSS”: “high polyreactivity”. For “QVQLVESGGGLVQAGGSLRLSCAASGSNVAVYVMGWYRQAPGKERELVAAISISAARTYYADSVKGRFTISRDNAKNTVYLQMNSLKPEDTAVYYGAARLVFRNDSWGQGTQVTVSS”, the “polyreactivity (PSR sort gate)” value is recorded as “high polyreactivity”. Next, “QVQLVESGGGLVQAGGSLRLSCAASGSPFRHYALGWYRQAPGKERELVAVISWGGTSTYYADSGKGRFTISRDNAKNTVYLQMNSLKPEDSAVYYCNADSNWYYQWNYYGLYDYWGQGTQVTVSS”: “low polyreactivity”; “QVQLVESGGGLVQAGGSLRLSCAASGSRNAMGWYRQEPGKERQFVAAITWNGGSTYYADSVKGRFTITRDNAKNTVYLQMNSLKPEDTAVYYCAADVVFPFSVGYDYWGQGTQVTVSS”: “low polyreactivity”. On to “QVQLVESGGGLVQAGGSLRLSCAASGSSFEGYVLGWYRQAPGKERELVATISFSGGSTYYADSVMGRFTISRDNAKNTVYLQMNSLKPVETAVYFSGASVRYKFYSVVSVRSEYWGQGTQVTVST”, for which the “polyreactivity (PSR sort gate)” value is reported as “low polyreactivity”. Next, “QVQLVESGGGLVQAGGSLRLSCAASGSSFGGYARGWYRQAPGKERELVAAISNGDRTNYADSVKGRFTISRDNAKNTVYLQLNSQKPEYTAVYDCATQPLTWSSYRWDWRAQFDHWGQGTQVTVSS”: “low polyreactivity”. Next, “QVQLVESGGGLVQAGGSLRLSCAASGSSFIINAMGWYRKAPGKERELVAAITSGGSTSYADSVKGRFTISRDNAKYTVYLQMNSLNPEDTAVYYCATDHDIGYNFNRYDYWGLGTQVTVSS”: “low polyreactivity”; “QVQLVESGGGLVQAGGSLRLSCAASGSSFISNAKGWYRQAPGKERELVAAINWTTGRTRYADSVQGRFTISRDNAKNSVYLQMNSLKAEDTAVYYCAKYSRKWYGAYYFWGQGTQVNVSS”: “high polyreactivity”. Regarding “QVQLVESGGGLVQAGGSLRLSCAASGSSFNRYAMGWYRQAPGKERELVAGISYRGGTYYADSVKGRFTISRDNAKNTVYLQMNSLKPEDTAVYYCNVVRRGTTSYDDYDYWGQGTQVTVSS”, the “polyreactivity (PSR sort gate)” value was “high polyreactivity”. Next, “QVQLVESGGGLVQAGGSLRLSCAASGSSFRFYAMGWYRQAPGKERELVATIRYSTGTTYYADSVKGRFTISRDNAKNTVYLQMNSLKPEDTAVYYCAAGYFIYSWRIRFDYWGQGTQVTVSS”: “high polyreactivity”; “QVQLVESGGGLVQAGGSLRLSCAASGSSFRYTMGWYRQAHGKQRELVATITYSDGSTYYADSVKGRFTISRDNAKNTVYFQMNSLKPEDTAVYYCARTTPTGRQYRRYDYWGQGSQVTVSS”: “low polyreactivity”; “QVQLVESGGGLVQAGGSLRLSCAASGSSFSHYAMGWYRQAPGKVRELVAGISVRGGSTYYADSVKGRFTISRDNAKNTVDLQMNSLKPEDTAVYYCAIGYAKYYRTYYYWGQGTQVTVSS”: “high polyreactivity”. “QVQLVESGGGLVQAGGSLRLSCAASGSSFSPYAMGWYRQAPGKERELVAAINSGSSTNYADSVKGRFTISRDNAKNTVYLQMNSLQPEDTAVYYCAADGQLPPRGILASWEFDYWGQGTQVTVSS”: the “polyreactivity (PSR sort gate)” value is “low polyreactivity”. Take “QVQLVESGGGLVQAGGSLRLSCAASGSSFVYNVMGWYRPAPGKERELVAAIRWRGGSTYADSVKGRFTISRDNAKNTVYLQMNSLKPEDTAVYYCAAGIPRYWYAGHYDYWGQGTQVTVSS”: the “polyreactivity (PSR sort gate)” value is recorded as “low polyreactivity”. Next, “QVQLVESGGGLVQAGGSLRLSCAASGSSFYYYAMGWYRQAPGKERELVAAITSGDTTNYADSVKGRFTISRDNAKNTVYLQMNSLIPEDTAVYYCAVDLNTTAFYPEAATYLDEYWGQGTQVTVSS”: “low polyreactivity”. As to “QVQLVESGGGLVQAGGSLRLSCAASGSSLDSYTMGWSRQAPGKERELVAAITSDGGSTYYADSVKGRFTISRDNAKNTVYLQMNSLKPEDTAVDYCAKLSRYYGFWYTPDFDYWGQGTQVTVSS”, the “polyreactivity (PSR sort gate)” value is on record as “high polyreactivity”. The value for “QVQLVESGGGLVQAGGSLRLSCAASGSSVYSYAMGWYRQAPGKERELVAAISWRGGSTYYADSVKGRFTISRDNAKNTVYLQMNSLKPEDTAVYYCAAYYYTGPTTVESDYWGQGTQVTVSS” was “high polyreactivity”; that for “QVQLVESGGGLVQAGGSLRLSCAASGSTAENVMGWYRQAPGKERELVAAISSRGGSTYYADSVKGRFTISRDNAKNTVYLQMNSLKPEDTAVYYCAAEYVSHFSGDRYDYWGQGTQVTVSS” was “low polyreactivity”. The value for “QVQLVESGGGLVQAGGSLRLSCAASGSTARYAMGWNRQAPGKERELVAAITGRTGRTNYADSVKGRFTISRDNAKITVYVQMNSLKPEDTAVYYCAKRAWRAVRWTYGYWGQGSQVTVSS” was “high polyreactivity”.

For the sequence “QVQLVESGGGLVQAGGSLRLSCAASGSTCASYAMGWYRQAPGKERELVAAITDSGGSTYYADSVKGRFTISRDNAKNTVYLQMNSLKPEDTAVYYCAAYGAYFSYHDYEYWGHGTQVTVSS”, the “polyreactivity (PSR sort gate)” value was “low polyreactivity”. Next, “QVQLVESGGGLVQAGGSLRLSCAASGSTCDYYAMGWYRQAPGKEREIVAAITTGGDTTNYADSVKGRFTISRDNAKNTVYLQMNSLKPEVTAVYYCARDTGYDLIVLPDDSWGQGTQVTVSS”: “low polyreactivity”; “QVQLVESGGGLVQAGGSLRLSCAASGSTCILNAMGWYRQAPGKERELVATISSSDTSTYYADSVKGRFTISRDNAKNTVYLQMNCLKPEDTAVYYCNADYYTTSYLQGVYHYGVEYDFWGQGTQVTVSS”: “low polyreactivity”; “QVQLVESGGGLVQAGGSLRLSCAASGSTCPYYAMGWYRQAPRKEMELVASIRKRGGGTSYADSVKGRFTISRDNAKNTVYLQMNSLKPEDTALYYCAVRVYQLRYTGYDYWGQCTQVTVSS”: “high polyreactivity”. On to “QVQLVESGGGLVQAGGSLRLSCAASGSTCVYYPMGWYRQAPGKERELVAAIRGRDGNTYYADSVKGRFTISRDNAQNTVYLQMNSLKPEDSAVYSSAATRRNQLYGVAYRYDYWGQGTQVTVSS”, for which the “polyreactivity (PSR sort gate)” value is “high polyreactivity”. The value for “QVQLVESGGGLVQAGGSLRLSCAASGSTFAANAMGWDRQAPGKERELVAAITSGGGSTYYADSVKGRFTISRDNAKNTVYLQMNSLKPEDTAVYYCAALQSHGVDYDYWGQGSQVTVSS” was “low polyreactivity”. The value for “QVQLVESGGGLVQAGGSLRLSCAASGSTFAANAMGWYRPAPGKERELDAAITSSGGSTYYADSVKGRFTISRDNAKNTVYLQMISLKPEDTAVYYCNKDIERYVRIYDSWGQGTQVTVSS” was “low polyreactivity”.

With “QVQLVESGGGLVQAGGSLRLSCAASGSTFAANAMGWYRQAPGKERELVAALTRSGGSTYYADSVKGRFTISRDNAKNTVYLQMNSLKPEDTAVYYCASKYHTRGVQHGYWGQGTQVTVSS”, the “polyreactivity (PSR sort gate)” value is listed as “low polyreactivity”. Regarding “QVQLVESGGGLVQAGGSLRLSCAASGSTFAANTMGWYRQAPGKERELVAAITVRGGSTYYADSVKGRFTISRDNAKNTVYLQMNSLKPEDTAGYYGAAERPPYGYLVVGYVSTQYYYWGQGTQVTVSS”, the “polyreactivity (PSR sort gate)” value is listed as “low polyreactivity”. The value for “QVQLVESGGGLVQAGGSLRLSCAASGSTFAANTMGWYRQAPGKEWELVAAITVRGGSTYYADSVKGRFTISRDNAKTTVYLQMNSLKPEDTAVYYCAAERPPYGYLVVGYVSTQYYYWGQGTQVTVSS” was “low polyreactivity”; that for “QVQLVESGGGLVQAGGSLRLSCAASGSTFAAYAAMGWYRQAPGKERELVAAISWNGGSTFYADSVKGRFTISRDNAKNTVYLQMNSLKPEDTAVYYCAVEYYWTLDFTFTFPLSYYWGQGSQVTVSS” was “low polyreactivity”; that for “QVQLVESGGGLVQAGGSLRLSCAASGSTFAAYVMGWYRQAPGKEWELVAAITSGGSTYYADSVKGRFTISRDNAKNTVYLQMNSLKPEDTAVYYCAASWIRYRWRYGYWGQGTQVTVSS” was “high polyreactivity”. On to “QVQLVESGGGLVQAGGSLRLSCAASGSTFADYAMGWYRQAPGKERELVAAITGDGGNTYYADSVKGRFTISRDTAKNTVYLQMTSLKPEDTAVYYCAAEHESGAYYYWGLGTQVTVSS”, for which the “polyreactivity (PSR sort gate)” value is “high polyreactivity”.

For the sequence “QVQLVESGGGLVQAGGSLRLSCAASGSTFADYVMGWYRQAPGKERELVAAISRSGGSTYYADSVKGRFTISRDNAKNTVYLQMNSLKPEDTAVYYCATDITPAISVEYDYWGQGTQVTVSS”, the “polyreactivity (PSR sort gate)” value was “high polyreactivity”.

For “QVQLVESGGGLVQAGGSLRLSCAASGSTFAGNAIGWYRQAPGKERELVAAITSGTGTHYADSVKGRFTISRDNAKNSVYLQMNSLKPEDTAVYYCAAEVWSWAGIWGYEYWGQGTQVTVSS”, the “polyreactivity (PSR sort gate)” value was “low polyreactivity”.

The values are drawn from the nanobody polyreactivity screen of Harvey et al. (2022).
